Reference: US20210130436A1 (published 2021)
Substitutions are numbered along the chain they refer to. In names and notes the source's numbering stands.

T1: CD96 (UniProt P40200 22-585, limits assumed)
T1 construct: whole, on cells
T1 sequence (looked up): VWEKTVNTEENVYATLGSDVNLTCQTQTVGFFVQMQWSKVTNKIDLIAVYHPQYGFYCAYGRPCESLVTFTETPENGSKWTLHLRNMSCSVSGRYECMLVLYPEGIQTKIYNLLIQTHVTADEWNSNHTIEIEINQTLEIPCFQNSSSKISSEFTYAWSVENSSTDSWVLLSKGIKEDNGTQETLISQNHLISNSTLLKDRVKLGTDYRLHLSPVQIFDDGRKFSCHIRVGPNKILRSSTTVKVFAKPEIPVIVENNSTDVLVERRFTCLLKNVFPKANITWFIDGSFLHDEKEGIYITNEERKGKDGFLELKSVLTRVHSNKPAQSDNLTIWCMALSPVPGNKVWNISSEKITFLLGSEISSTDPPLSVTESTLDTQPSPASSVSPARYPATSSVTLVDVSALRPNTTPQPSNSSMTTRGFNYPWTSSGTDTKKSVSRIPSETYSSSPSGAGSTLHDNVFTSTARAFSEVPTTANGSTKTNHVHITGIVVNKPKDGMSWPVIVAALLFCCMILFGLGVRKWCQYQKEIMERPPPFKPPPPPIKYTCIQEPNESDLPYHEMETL

T2: CD226 (Homo sapiens (Human), UniProt Q15762 19-336)
T2 sequence: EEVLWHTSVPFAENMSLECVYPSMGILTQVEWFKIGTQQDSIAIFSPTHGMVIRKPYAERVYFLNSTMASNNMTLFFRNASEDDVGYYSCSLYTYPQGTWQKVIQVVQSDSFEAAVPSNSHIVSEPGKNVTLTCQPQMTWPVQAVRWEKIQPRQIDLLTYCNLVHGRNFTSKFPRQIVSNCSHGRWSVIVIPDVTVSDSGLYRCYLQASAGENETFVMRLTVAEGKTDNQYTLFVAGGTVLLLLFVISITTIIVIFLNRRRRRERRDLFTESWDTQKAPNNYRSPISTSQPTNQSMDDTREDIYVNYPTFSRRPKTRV

T3: TIGIT (Homo sapiens (Human), UniProt Q495A1 22-244)
T3 sequence: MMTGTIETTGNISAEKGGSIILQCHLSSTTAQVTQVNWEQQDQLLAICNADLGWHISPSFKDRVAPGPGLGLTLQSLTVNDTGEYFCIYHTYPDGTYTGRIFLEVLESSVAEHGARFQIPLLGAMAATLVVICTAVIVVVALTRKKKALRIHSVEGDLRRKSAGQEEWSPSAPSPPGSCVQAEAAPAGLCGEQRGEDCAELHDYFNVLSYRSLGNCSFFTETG

B1: variant CD80 IgV-Fc E35D/L97R (Fc fusion, not shown: a dimerising Fc or GST)
chain: VIHVTKEVKEVATLSCGHNVSVEELAQTRIYWQKDKKMVLTMMSGDMNIWPEYKNRTIFDITNNLSIVILALRPSDEGTYECVVLKYEKDAFKREHRAEVTLSVKAD
B2: variant CD80 IgV-Fc E35D/N48K/L72V (Fc fusion, not shown: a dimerising Fc or GST)
chain: B1 chain with N48K, L72V, R97L
B3: variant CD80 IgV-Fc H18Y/E35D/M47V/N48K (Fc fusion, not shown: a dimerising Fc or GST)
chain: B1 chain with H18Y, M47V, N48K, R97L
B4: variant CD80 IgV-Fc E35D/M47V/N48K/L85M (Fc fusion, not shown: a dimerising Fc or GST)
chain: B1 chain with M47V, N48K, L85M, R97L
B5: WT CD80 ECD-Fc (Fc fusion, not shown: a dimerising Fc or GST)
chain: VIHVTKEVKEVATLSCGHNVSVEELAQTRIYWQKEKKMVLTMMSGDMNIWPEYKNRTIFDITNNLSIVILALRPSDEGTYECVVLKYEKDAFKREHLAEVTLSVKADFPTPSISDFEIPTSNIRRIICSTSGGFPEPHLSWLENGEELNAINTTVSQDPETELYAVSSKLDFNMTTNHSFMCLIKYGHLRVNQTFNWNTTKQEHFPDN
notes: Wild-type control
B6: variant CD155 IgV-Fc S42W (Fc fusion, not shown: a dimerising Fc or GST)
chain: WPPPGTGDVVVQAPTQVPGFLGDSVTLPCYLQVPNMEVTHVWQLTWARHGESGSMAVFHQTQGPSYSESKRLEFVAARLGAELRNASLRMFGLRVEDEGNYTCLFVTFPQGSRSVDIWLRVL
B7: variant CD155 IgV-Fc Q62F/L104E/G111R (Fc fusion, not shown: a dimerising Fc or GST)
chain: B6 chain with W42S, Q62F, L104E, G111R
B8: variant CD155 IgV-Fc Q62Y (Fc fusion, not shown: a dimerising Fc or GST)
chain: B6 chain with W42S, Q62Y
B9: variant CD155 IgV-Fc S42Q (Fc fusion, not shown: a dimerising Fc or GST)
chain: B6 chain with W42Q
B10: variant CD155 IgV-Fc S42L/S52L/Q62F/L104Q (Fc fusion, not shown: a dimerising Fc or GST)
chain: B6 chain with W42L, S52L, Q62F, L104Q
B11: variant CD155 IgV-Fc Q62F (Fc fusion, not shown: a dimerising Fc or GST)
chain: B6 chain with W42S, Q62F
B12: variant CD155 IgV-Fc S52M/Q62Y (Fc fusion, not shown: a dimerising Fc or GST)
chain: B6 chain with W42S, S52M, Q62Y
B13: variant CD155 IgV-Fc S42A/S52Q/L104Q/G111R (Fc fusion, not shown: a dimerising Fc or GST)
chain: B6 chain with W42A, S52Q, L104Q, G111R
B14: variant CD155 IgV-Fc S52M/L104Q (Fc fusion, not shown: a dimerising Fc or GST)
chain: B6 chain with W42S, S52M, L104Q
B15: variant CD155 IgV-Fc S52W/L104E (Fc fusion, not shown: a dimerising Fc or GST)
chain: B6 chain with W42S, S52W, L104E
B16: variant CD155 IgV-Fc S42C (Fc fusion, not shown: a dimerising Fc or GST)
chain: B6 chain with W42C
B17: variant CD155 IgV-Fc S42N/S52Q/Q62F (Fc fusion, not shown: a dimerising Fc or GST)
chain: B6 chain with W42N, S52Q, Q62F
B18: variant CD155 IgV-Fc S42W/S52R/Q62Y/L104Q (Fc fusion, not shown: a dimerising Fc or GST)
chain: B6 chain with S52R, Q62Y, L104Q
B19: variant CD155 IgV-Fc T45Q/S52L/V57L/L104E (Fc fusion, not shown: a dimerising Fc or GST)
chain: B6 chain with W42S, T45Q, S52L, V57L, L104E
B20: variant CD155 IgV-Fc S42A/L104Q/G111R (Fc fusion, not shown: a dimerising Fc or GST)
chain: B6 chain with W42A, L104Q, G111R
B21: variant CD155 IgV-Fc S42W/S52Q/V57L/Q62Y (Fc fusion, not shown: a dimerising Fc or GST)
chain: B6 chain with S52Q, V57L, Q62Y
B22: variant CD155 IgV-Fc S42A/S52L/L104E/G111R (Fc fusion, not shown: a dimerising Fc or GST)
chain: B6 chain with W42A, S52L, L104E, G111R
B23: variant CD155 IgV-Fc S52W (Fc fusion, not shown: a dimerising Fc or GST)
chain: B6 chain with W42S, S52W
B24: variant CD155 IgV-Fc S52M (Fc fusion, not shown: a dimerising Fc or GST)
chain: B6 chain with W42S, S52M
B25: variant CD155 IgV-Fc S42L/S52Q/L104E (Fc fusion, not shown: a dimerising Fc or GST)
chain: B6 chain with W42L, S52Q, L104E
B26: variant CD155 IgV-Fc S52Q (Fc fusion, not shown: a dimerising Fc or GST)
chain: B6 chain with W42S, S52Q
B27: variant CD155 IgV-Fc S42N/L104Q/G111R (Fc fusion, not shown: a dimerising Fc or GST)
chain: B6 chain with W42N, L104Q, G111R
B28: variant CD155 IgV-Fc T45Q/S52L/L104E/G111R (Fc fusion, not shown: a dimerising Fc or GST)
chain: B6 chain with W42S, T45Q, S52L, L104E, G111R
B29: variant CD155 IgV-Fc S52R/Q62F/L104Q/G111R (Fc fusion, not shown: a dimerising Fc or GST)
chain: B6 chain with W42S, S52R, Q62F, L104Q, G111R
B30: variant CD155 IgV-Fc S52E (Fc fusion, not shown: a dimerising Fc or GST)
chain: B6 chain with W42S, S52E
B31: variant CD155 IgV-Fc S52L (Fc fusion, not shown: a dimerising Fc or GST)
chain: B6 chain with W42S, S52L
B32: variant CD80 IgV-Fc E24D/Q33L/E35D/M47V/K54R/L85Q (Fc fusion, not shown: a dimerising Fc or GST)
chain: B1 chain with E24D, Q33L, M47V, K54R, L85Q, R97L

Molecular target: T4, CD28 on Jurkat/IL2 reporter cells (human, UniProt P10747 19-220)
T4 construct: whole, on cells; Endogenous CD28 of Jurkat cells; also called Jurkats (CD28)
Test: flow cytometry, Jurkat cells (CD28)

Row | MFI at 33.3 nM [MFI] | Binder
1 | 44.6 | B1
2 | 582 | B2
3 | 841 | B3
4 | 413 | B4

Molecular target: human CD28 (human, UniProt P10747 19-220)
Test: flow cytometry, Jurkat cells (CD28)

Row | MFI at 33.3 nM [MFI] | Binder
5 | 31 | B5

Molecular target: T5, human PD-L1 on CHO cells (human, UniProt Q9NZQ7 19-290)
T5 construct: whole, on cells; CHO cells stably expressing PD-L1; also called huPD-L1
Test: flow cytometry, CHO cells stably expressing PD-L1

T5 sequence (Q9NZQ7 19-290): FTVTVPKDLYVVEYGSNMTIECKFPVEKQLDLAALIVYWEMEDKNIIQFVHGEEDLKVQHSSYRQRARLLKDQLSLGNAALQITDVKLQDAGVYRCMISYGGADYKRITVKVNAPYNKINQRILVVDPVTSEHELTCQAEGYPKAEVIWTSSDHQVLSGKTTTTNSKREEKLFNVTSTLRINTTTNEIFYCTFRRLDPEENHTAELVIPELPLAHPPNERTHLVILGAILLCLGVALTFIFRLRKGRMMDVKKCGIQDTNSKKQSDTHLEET

Row | MFI at 33.3 nM [MFI] | Binder
6 | 2610 | B1
7 | 3030 | B2
8 | 6460 | B3
9 | 5660 | B4

Molecular target: T1, CD96
Test: flow cytometry, Fc fusion at 100 nM, CD96-transfected cells

Row | MFI at 100 nM [MFI] | Binder
10 | 2560 | B6
11 | 1520 | B7
12 | 1830 | B8
13 | 2140 | B9
14 | 2320 | B10
15 | 2760 | B11
16 | 1650 | B12
17 | 1640 | B13
18 | 1630 | B14
19 | 1630 | B15
20 | 1590 | B16
21 | 1740 | B17
22 | 1760 | B18
23 | 1530 | B19
24 | 1700 | B20
25 | 1700 | B21
26 | 1610 | B22
27 | 1710 | B23
28 | 1610 | B24
29 | 1700 | B25
30 | 1820 | B26
31 | 1960 | B27
32 | 1580 | B28
33 | 2360 | B29
34 | 1800 | B30

Molecular target: T2, CD226
Test: flow cytometry, Fc fusion at 100 nM, CD226-transfected cells

Row | MFI at 100 nM [MFI] | Binder
35 | 2680 | B31
36 | 2130 | B6
37 | 2040 | B7
38 | 2620 | B8
39 | 2230 | B9
40 | 2640 | B10
41 | 2570 | B11
42 | 2000 | B12
43 | 2160 | B13
44 | 2250 | B14
45 | 1910 | B15
46 | 2100 | B16
47 | 2150 | B17
48 | 2300 | B18
49 | 5940 | B19
50 | 1900 | B20
51 | 2140 | B21
52 | 1890 | B22
53 | 2040 | B23
54 | 1900 | B24
55 | 6470 | B25
56 | 2020 | B26
57 | 2310 | B27
58 | 2390 | B28
59 | 3170 | B29
60 | 2600 | B30

Molecular target: T3, TIGIT
Test: flow cytometry, Fc fusion at 100 nM, TIGIT-transfected cells

Row | MFI at 100 nM [MFI] | Binder
61 | 2220 | B31
62 | 2430 | B6
63 | 1970 | B7
64 | 2530 | B8
65 | 2070 | B9
66 | 2020 | B10
67 | 2210 | B11
68 | 1930 | B12
69 | 1810 | B13
70 | 2670 | B14
71 | 1940 | B15
72 | 1910 | B16
73 | 2400 | B17
74 | 1920 | B18
75 | 2860 | B19
76 | 1920 | B20
77 | 1960 | B21
78 | 2260 | B22
79 | 1990 | B23
80 | 1870 | B24
81 | 1950 | B25
82 | 2290 | B26
83 | 2430 | B27
84 | 2290 | B28
85 | 2970 | B29
86 | 2660 | B30

Molecular target: T6, human CTLA4 (full-length, expressed on CHO cells) (human, UniProt P16410 36-223)
T6 construct: also called huCTLA4
Test: flow cytometry, CHO cells expressing huCTLA4, PE anti-human Fc

T6 sequence (P16410 36-223): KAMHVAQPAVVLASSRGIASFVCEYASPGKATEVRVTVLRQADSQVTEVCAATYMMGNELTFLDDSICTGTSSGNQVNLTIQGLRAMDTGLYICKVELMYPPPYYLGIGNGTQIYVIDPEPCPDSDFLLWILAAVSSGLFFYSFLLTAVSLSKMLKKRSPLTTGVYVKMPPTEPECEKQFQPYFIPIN

Row | MFI at 33.3 nM [MFI] | Binder
87 | 311000 | B32

Molecular target: T7, human PD-L1 (full-length, expressed on CHO cells) (human, UniProt Q9NZQ7 19-290)
T7 construct: also called huPD-L1; CD274
Test: flow cytometry, CHO cells expressing huPD-L1, PE anti-human Fc

T7 sequence (Q9NZQ7 19-290): as the sequence (Q9NZQ7 19-290) above

Row | MFI at 33.3 nM [MFI] | Binder
88 | 67100 | B32
